{
  "source": "paper PMC4551323",
  "about": "(Molecular Biology of the Cell, 2015)",
  "binders": {"B1": {"name": "myc-tagged ALK5 (type I TGF-β receptor, TβRI) (receptor)", "chain": "LQCFCHLCTKDNFTCVTDGLCFVSVTETTDKVIHNSMCIAEIDLIPRDRPFVCAPSSKTGSVTTTYCCNQDHCNKIELPTTVKSSPGLGPVELAAVIAGPVCFVCISLMLMVYICHNRTVIHHRVPNEEDPSLDRPFISEGTTLKDLIYDMTTSGSGSGLPLLVQRTIARTIVLQESIGKGRFGEVWRGKWRGEEVAVKIFSSREERSWFREAEIYQTVMLRHENILGFIAADNKDNGTWTQLWLVSDYHEHGSLFDYLNRYTVTVEGMIKLALSTASGLAHLHMEIVGTQGKPAIAHRDLKSKNILVKKNGTCCIADLGLAVRHDSATDTIDIAPNHRVGTKRYMAPEVLDDSINMKHFESFKRADIYAMGLVFWEIARRCSIGGIHEDYQLPYYDLVPSDPSVEEMRKVVCEQKLRPNIPNRWQSCEALRVMAKIMRECWYANGAARLTALRIKKTLSQLSQQEGIKM"}},
  "target": "HA-tagged type II TGF-β receptor (TβRII) (human, UniProt P37173 23-567)",
  "sequence (P37173 23-567)": "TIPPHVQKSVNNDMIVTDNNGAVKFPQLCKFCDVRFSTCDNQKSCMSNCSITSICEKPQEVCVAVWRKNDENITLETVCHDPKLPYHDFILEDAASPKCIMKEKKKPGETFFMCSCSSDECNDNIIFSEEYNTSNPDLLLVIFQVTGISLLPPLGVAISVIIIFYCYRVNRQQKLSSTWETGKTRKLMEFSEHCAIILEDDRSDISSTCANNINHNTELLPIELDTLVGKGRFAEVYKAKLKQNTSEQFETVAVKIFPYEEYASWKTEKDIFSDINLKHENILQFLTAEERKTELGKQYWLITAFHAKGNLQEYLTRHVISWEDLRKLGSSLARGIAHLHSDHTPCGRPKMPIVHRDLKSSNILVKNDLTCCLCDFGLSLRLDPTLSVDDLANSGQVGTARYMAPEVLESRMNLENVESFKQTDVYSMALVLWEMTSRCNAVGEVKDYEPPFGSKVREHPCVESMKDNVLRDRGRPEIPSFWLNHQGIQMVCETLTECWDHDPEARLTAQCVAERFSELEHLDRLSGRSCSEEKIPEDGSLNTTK",
  "assay": "patch/FRAP",
  "data": [
    {"binder": "B1", "values": [
      {"measurement": "fold increase of complex formation with TGF-β1 against no ligand", "value": "~2", "unit": "fold"}
    ]}
  ]
}
